Patent US20150197542A1 (SAMSUNG ELECTRONICS, published 2015)

Biological target: T1, human c-Met/Fc fusion protein (R&D Systems) (human, UniProt P08581 25-932)
T1 construct: Bought reagent; also called human c-Met/Fc protein; not shown: Fc part of the bought fusion
Assay: ELISA, human c-Met/Fc fusion protein coated at 2 µg/mL, hybridoma culture, anti-mouse IgG-HRP
Description: Human c-Met/Fc fusion protein was seeded in an amount of 50 μL (2 μg/mL)/well to microtiter plates and allowed to adhere to the surface of each well. The antibody that remained unbound was removed by washing.
The hybridoma cell culture obtained in Reference Example 1.1.2 was added in an amount of 50 μL to each well of the plates and incubated for 1 hour. The cells remaining unreacted were washed out with a sufficient amount of Tris-buffered saline and Tween 20 (TBST). Goat anti-mouse IgG-horseradish peroxidase (HRP) was added to the plates and incubated for 1 hour at room temperature. The plates were washed with a sufficient amount of TBST, followed by reacting the peroxidase with a substrate (OPD). Absorbance at 450 nm was measured on an ELISA reader.

T1 sequence (P08581 25-932 limits assumed): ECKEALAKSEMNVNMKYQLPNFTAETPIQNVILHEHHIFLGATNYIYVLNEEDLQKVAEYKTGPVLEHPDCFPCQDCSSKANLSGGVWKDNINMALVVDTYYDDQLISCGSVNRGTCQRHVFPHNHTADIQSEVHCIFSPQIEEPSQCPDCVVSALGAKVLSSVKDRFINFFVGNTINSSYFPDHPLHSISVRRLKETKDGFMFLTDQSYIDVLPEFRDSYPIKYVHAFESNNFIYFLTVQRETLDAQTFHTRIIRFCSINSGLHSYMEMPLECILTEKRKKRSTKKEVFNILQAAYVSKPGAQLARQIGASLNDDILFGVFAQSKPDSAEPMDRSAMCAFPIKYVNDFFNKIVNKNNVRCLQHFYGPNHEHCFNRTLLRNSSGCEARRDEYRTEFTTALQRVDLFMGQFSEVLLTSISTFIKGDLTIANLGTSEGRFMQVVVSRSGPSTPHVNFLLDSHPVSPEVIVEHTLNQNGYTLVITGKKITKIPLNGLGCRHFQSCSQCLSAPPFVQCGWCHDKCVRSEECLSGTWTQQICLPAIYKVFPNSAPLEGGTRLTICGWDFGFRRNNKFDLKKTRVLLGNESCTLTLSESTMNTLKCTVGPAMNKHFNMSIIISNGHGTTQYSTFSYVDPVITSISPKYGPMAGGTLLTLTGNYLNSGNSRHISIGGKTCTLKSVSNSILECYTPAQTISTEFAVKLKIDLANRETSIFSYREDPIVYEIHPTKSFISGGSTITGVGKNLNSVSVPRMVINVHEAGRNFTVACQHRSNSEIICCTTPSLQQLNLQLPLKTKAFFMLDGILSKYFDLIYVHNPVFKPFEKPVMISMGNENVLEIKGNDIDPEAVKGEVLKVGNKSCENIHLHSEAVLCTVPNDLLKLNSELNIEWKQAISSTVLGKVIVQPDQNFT

- binding result: binds
B1: AbF46, mouse monoclonal antibody to c-Met (hybridoma KCLRF-BP-00220) (antibody, V domains shown)
VH: EVKLVESGGGLVQPGGSLRLSCATSGFTFTDYYMSWVRQPPGKALEWLGFIRNKANGYTTEYSASVKGRFTISRDNSQSILYLQMDTLRAEDSATYYCARDNWFAYWGQGTLVTVSA
VL: DILMTQSPSSLTVSAGEKVTMSCKSSQSLLASGNQNNYLAWHQQKPGRSPKMLIIWASTRVSGVPDRFIGSGSGTDFTLTINSVQAEDLAVYYCQQSYSAPLTFGAGTKLELK
notes: Tested as hybridoma culture supernatant in the screening ELISA; also called mouse antibody AbF46
